Measured values as given in article doi:10.1101/283192.
Numbering of substitutions follows the chain as printed. Names may count otherwise.

What was measured:
Conditions in all cases: remark: other sources report otherwise
[1] = molecular target: T1, CHIP (carboxyl terminus of heat shock 70-interacting protein), wild type, His-tagged recombinant (human), Q9UNE7; experiment: SEC-MALS
T1 chain: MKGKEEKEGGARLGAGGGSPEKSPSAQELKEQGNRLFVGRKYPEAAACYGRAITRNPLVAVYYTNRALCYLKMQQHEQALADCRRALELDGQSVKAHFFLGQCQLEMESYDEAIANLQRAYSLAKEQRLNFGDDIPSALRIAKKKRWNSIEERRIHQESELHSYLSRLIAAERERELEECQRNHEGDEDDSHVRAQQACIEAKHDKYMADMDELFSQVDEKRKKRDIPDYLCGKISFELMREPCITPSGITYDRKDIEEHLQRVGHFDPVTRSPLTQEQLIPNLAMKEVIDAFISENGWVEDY

[2] = molecular target: T2, CHIP-K30A, His-tagged recombinant (human), Q9UNE7; experiment: SEC-MALS
T2 chain: T1 chain with K30A

[3] = molecular target: T3, myc-CHIP wild type (pcDNA3-mycCHIP) (human), Q9UNE7; experiment: native gel or EMSA
T3 chain: T1 chain

[4] = molecular target: T4, myc-CHIP-K30A (pcDNA3-mycCHIP-K30A) (human), Q9UNE7; experiment: native gel or EMSA
T4 chain: T1 chain with K30A

B1: CHIP (carboxyl terminus of heat shock 70-interacting protein), wild type, His-tagged recombinant, Q9UNE7 1-303 (natural protein)
chain: T1 chain
Q: With B1 as the binder, how does the stoichiometry N [1] read?
A: 2

B2: CHIP-K30A, His-tagged recombinant, Q9UNE7 1-303 (natural protein)
chain: T1 chain with K30A
Q: How did the stoichiometry N [2] turn out when B2 was run?
A: 2

B3: myc-CHIP wild type (pcDNA3-mycCHIP), Q9UNE7 1-303 (natural protein)
chain: T1 chain
Q: For B3, which stoichiometry N [3] is on record?
A: 2

B4: myc-CHIP-K30A (pcDNA3-mycCHIP-K30A), Q9UNE7 1-303 (natural protein)
chain: T1 chain with K30A
Q: For B4, which stoichiometry N [4] is on record?
A: 2
